Experimental data taken from patent US20140371142A1 (Johns Hopkins, published 2014).

B1: FLAG epitope-tagged mouse myonectin (CTRP15) (ligand)
chain: LGVPESAEPVGTHARPQPPGAELPAPPANSPPEPTIAHAHSVDPRDAWMLFVKQSDKGINSKRRSKARRLKLGLPGPPGPPGPQGPPGPFIPSEVLLKEFQLLLKGAVRQRESHLEHCTRDLTTPASGSPSRVPAAQELDSQDPGALLALLAATLAQGPRAPRVEAAFHCRLRRDVQVDRRALHELGIYYLPEVEGAFHRGPGLNLTSGQYTAPVAGFYALAATLHVALTEQPRKGPTRPRDRLRLLICIQSLCQHNASLETVMGLENSSELFTISVNGVLYLQAGHYTSVFLDNASGSSLTVRSGSHFSAILLGLDYKDDDDK
modifications: N-linked glycans (sites not given)
notes: Secreted into the supernatant of transfected HEK 293T cells; Disulfide-linked dimer on a non-reducing gel and multimeric on a native gel; also called FLAG-tagged myonectin; recombinant myonectin

Columns and labels:
[1] = molecular target: B1; experiment: co-expression in HEK 293T cells, immunoprecipitation then immunoblot of supernatants (FLAG / HA tags)
[2] = molecular target: the molecule itself; experiment: native gel immunoblot, FIG. 4 legend (self-association)
Protocol: Native gel electrophoresis. Non-denaturing, non-reducing gel electrophoresis was carried out as previously described (PLoS One, 5: e12765).
Myonectin (CTRP15) protein forms disulfide-linked oligomers and heteromeric complexes with other CTRPs. Consistent with the presence of a signal peptide, myonectin was robustly secreted into the conditioned medium when expressed in vitro (FIG. 4A). Secreted myonectin contains N-linked glycans; treatment with PNGase F (an N-glycosidase) reduced the apparent molecular weight of myonectin on immunoblot (FIG. 4B), confirming that one or more of the conserved Asn residues are glycosylated. In the absence of reducing agent (β-ME), myonectin migrated as a dimer on immunoblot (FIG. 4C), indicating the presence of intermolecular disulfide bond. […] Formation of oligomers is a biochemical feature shared by all CTRPs and proteins of the C1q family. […] Similarly, when co-expressed in mammalian cells (HEK 293T), myonectin formed heteromeric complexes with CTRP2 and CTRP12, and, to a lesser extent, with CTRP5 and CTRP10 (FIG. 4E).

binding result [1]	Binder	binding result [2]
binds	HA epitope-tagged CTRP2 (other, mouse, Co-expressed with FLAG-tagged myonectin in HEK 293T cells; supernatants were used for immunoprecipitation) DPMLGAFARRDFQKGGPQLVCSLPGPQGPPGPPGAPGSSGVVGRMGFPGKDGQDGQDGDRGDSGEEGPPGRTGNRGKQGPKGKAGAIGRAGPRGPKGVSGTPGKHGTPGKKGPKGKKGEPGLPGPCSCGSSRAKSAFSVAVTKSYPRERLPIKFDKILMNEGGHYNASSGKFVCSVPGIYYFTYDITLANKHLAIGLVHNGQYRIRTFDANTGNHDVASGSTILALKEGDEVWLQIFYSEQNGLFYDPYWTDSLFTGFLIYADQGDPNEVYPYDVPDYA	–
binds	HA epitope-tagged CTRP5 (other, mouse, Co-expressed with FLAG-tagged myonectin in HEK 293T cells; supernatants were used for immunoprecipitation) SPPLDDNKIPSLCPGQPGLPGTPGHHGSQGLPGRDGRDGRDGAPGAPGEKGEGGRPGLPGPRGEPGPRGEAGPMGAIGPAGECSVPPRSAFSAKRSESRVPPPADTPLPFDRVLLNEQGHYDPTTGKFTCQVPGVYYFAVHATVYRASLQFDLVKNGQSIASFFQYFGGWPKPASLSGGAMVRLEPEDQVWVQVGVGDYIGIYASIKTDSTFSGFLVYSDWHSSPVFAYPYDVPDYA	–
binds	HA epitope-tagged CTRP10 (other, mouse, Co-expressed with FLAG-tagged myonectin in HEK 293T cells; supernatants were used for immunoprecipitation) HYEMLGTCRMICDPYSVAPAGGPAGAKAPPPGPSTAALEVMQDLSANPPPPFIQGPKGDPGRPGKPGPRGPPGEPGPPGPRGPPGEKGDSGRPGLPGLQLTTSAAGGVGVVSGGTGGGGDTEGEVTSALSAAFSGPKIAFYVGLKSPHEGYEVLKFDDVVTNLGNHYDPTTGKFSCQVRGIYFFTYHILMRGGDGTSMWADLCKNGQVRASAIAQDADQNYDYASNSVVLHLDSGDEVYVKLDGGKAHGGNNNKYSTFSGFLLYPDYPYDVPDYA	–
–	B1	binds
